This note sets out measurements from patent US20160327558A1.

Assay [1] concerns the target active endogenous MALT1 (stimulated Jurkat T cells, stimulated primary human PBMCs and T cells, ABC DLBCL cells) (human) (UniProt Q9UDY8). Description: ELISA-type assay on streptavidin-coated plates, 2×10^6 Jurkat T cells. (In an ELISA, binding on a coated surface is turned into a signal by an enzyme label.)
Assay [2] has the same target. As to the kind of experiment: probe 7 pulldown with streptavidin beads; supernatant tested with probe 6.

Primed or numbered codes have the meaning given here. The star is where a group is joined. AOMK(3) = acyloxymethyl ketone at C-terminal Arg; Biotin = O=C1N[C@H]2[C@H](CS[C@H]2CCCCC(=O)*)N1 Some results are limits rather than exact numbers.

Ac-K(Biotin)LRSR-{AOMK(3)} [probe 7 (biotin-coupled; Ac-Lys(biotin)-LRSR-AOMK)]: the probe concentration sufficient to obtain a robust increase in active MALT1 in assay [1] is under 10 nM. Further, the probe concentration sufficient to completely remove active MALT1 from the extracts in assay [2] amounted to 100 nM.
